# Data as given in US20120058906A1 (published 2012).
# T1: rHuman Erythropoietin R/Fc Chimera, CF (R&D Systems Cat#963-ER) (human, UniProt P19235 25-250)
# T1 construct: Bought Fc chimera; also called EPO R/Fc; EPOR; Fc part of the bought chimera not given
# T1 sequence: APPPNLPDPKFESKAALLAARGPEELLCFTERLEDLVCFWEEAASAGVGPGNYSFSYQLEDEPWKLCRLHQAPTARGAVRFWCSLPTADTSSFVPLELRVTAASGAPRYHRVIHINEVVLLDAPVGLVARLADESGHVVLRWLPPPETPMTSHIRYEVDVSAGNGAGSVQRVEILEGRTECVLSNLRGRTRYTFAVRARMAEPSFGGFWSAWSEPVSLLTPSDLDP
# Key:
# [1] = molecular target: T2, rHuman ErbB2/Fc Chimera, CF (R&D Systems Cat#1129-ER) (human, UniProt P04626 23-652); test: MSD ECL titration, Fab 2.3 nM, blank 234;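 note: blank spot per well as comparator with Hit at signal to blank ratio of 4 or more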
# T2 construct: Bought Fc chimera; also called HER2/neu; Fc part of the bought chimera not given
# [2] = molecular target: T3, Recombinant Human DLL4 (R&D Systems Cat#1506-D4/CF) (human, UniProt Q9NR61 27-524); test: MSD ECL titration, Fab 2.3 nM, blank 234;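 note: blank spot per well as comparator with Hit at signal to blank ratio of 4 or more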
# T3 construct: Bought recombinant protein; also called rHuman DLL4; delta-like protein 4
# [3] = molecular target: T4, rHuman P-Cadherin/Fc Chimera, CF (R&D Systems Cat#861-PC) (human, UniProt P22223 108-654); test: MSD ECL titration, Fab 2.3 nM, blank 234;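 note: blank spot per well as comparator with Hit at signal to blank ratio of 4 or more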
# T4 construct: Bought Fc chimera; Fc part of the bought chimera not given
# [4] = molecular target: T1, rHuman Erythropoietin R/Fc Chimera, CF …; test: MSD ECL titration, Fab 2.3 nM, blank 234;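 note: blank spot per well as comparator with Hit at signal to blank ratio of 4 or more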
# [5] = molecular target: T5, rHuman Notch-1/Fc Chimera, CF (R&D Systems Cat#3647-TK) (human, UniProt P46531 19-526); test: MSD ECL titration, Fab 2.3 nM, blank 234;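 note: blank spot per well as comparator with Hit at signal to blank ratio of 4 or more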
# T5 construct: Bought Fc chimera; Fc part of the bought chimera not given
# [6] = molecular target: T6, rHuman CD44/Fc Chimera, CF (R&D Systems Cat#3660-CD) (human, UniProt P16070 21-220); test: MSD ECL titration, Fab 2.3 nM, blank 234;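 note: blank spot per well as comparator with Hit at signal to blank ratio of 4 or more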
# T6 construct: Bought Fc chimera; Fc part of the bought chimera not given
# [7] = molecular target: T7, rHuman IGF-1 sR (insulin-like growth factor-1 soluble receptor), CF (R&D Systems Cat#391-GR) (human, UniProt P08069 31-932); test: MSD ECL titration, Fab 2.3 nM, blank 234
# T7 construct: Bought soluble receptor; also called IGF-R1
# [8] = molecular target: T8, rHuman HGF R/c-MET/Fc Chimera, CF (R&D Systems Cat#358-MT/CF) (human, UniProt P08581 25-932); test: MSD ECL titration, Fab 2.3 nM, blank 234
# T8 construct: Bought Fc chimera; also called HGF R/Fc; Fc part of the bought chimera not given
# [9] = molecular target: T9, rHuman EGF R/Fc Chimera, CF (R&D Systems Cat#344-ER) (human, UniProt P00533 25-645); test: MSD ECL titration, Fab 2.3 nM, blank 234
# T9 construct: Bought Fc chimera; Fc part of the bought chimera not given
# [10] = molecular target: T10, rHuman Notch-1/Fc Chimera, CF (R&D Systems Cat#3647-TK) (human, UniProt P46531 19-526); test: ECL (MSD multi-spot), antigen on plate, Fab 0.5 nM
# T10 construct: Bought Fc chimera; not shown: Fc of the bought chimera
# [11] = molecular target: T11, rHuman HGF R/c-MET/Fc Chimera, CF (R&D Systems Cat#358-MT/CF) (human, UniProt P08581 25-932); test: ECL (MSD multi-spot), antigen on plate, Fab 0.5 nM
# T11 construct: Bought Fc chimera; also called HGF R/Fc; not shown: Fc of the bought chimera
# [12] = molecular target: T12, rHuman P-Cadherin/Fc Chimera, CF (R&D Systems Cat#861-PC) (human, UniProt P22223 108-654); test: ECL (MSD multi-spot), antigen on plate, Fab 0.5 nM
# T12 construct: Bought Fc chimera; also called CDH3; not shown: Fc of the bought chimera
# [13] = molecular target: T13, rHuman IGF-1 sR (insulin-like growth factor-1 soluble receptor), CF (R&D Systems Cat#391-GR) (human, UniProt P08069 31-932); test: ECL (MSD multi-spot), antigen on plate, Fab 0.5 nM
# T13 construct: Bought soluble receptor; also called IGF-R1
# [14] = molecular target: T14, rHuman ErbB2/Fc Chimera, CF (R&D Systems Cat#1129-ER) (human, UniProt P04626 23-652); test: ECL (MSD multi-spot), antigen on plate, Fab 0.5 nM
# T14 construct: Bought Fc chimera; also called HER2/neu; not shown: Fc of the bought chimera
# [15] = molecular target: T15, Recombinant Human DLL4 (R&D Systems Cat#1506-D4/CF) (human, UniProt Q9NR61 27-524); test: ECL (MSD multi-spot), antigen on plate, Fab 0.5 nM
# T15 construct: Bought recombinant protein; also called delta-like protein 4
# [16] = molecular target: T16, rHuman EGF R/Fc Chimera, CF (R&D Systems Cat#344-ER) (human, UniProt P00533 25-645); test: ECL (MSD multi-spot), antigen on plate, Fab 0.5 nM
# T16 construct: Bought Fc chimera; also called ErbB-1; not shown: Fc of the bought chimera
# [17] = molecular target: T17, rHuman EGF R/Fc Chimera, CF (R&D Systems Cat#344-ER) (human, UniProt P00533 25-645); test: ECL (MSD Multi-Spot) binding, antigen spotted on plate; Fab 50 nM;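 note: blank spot per well as comparator with Hit at signal to blank ratio of 4 or more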
# T17 construct: Bought Fc chimera; also called epidermal growth factor receptor; Fc part of the bought chimera not given
# [18] = molecular target: T18, rHuman ErbB2/Fc Chimera, CF (R&D Systems Cat#1129-ER) (human, UniProt P04626 23-652); test: as above
# T18 construct: Bought Fc chimera; also called human epidermal growth factor 2 receptor; HER2/neu; Fc part of the bought chimera not given
# [19] = molecular target: T19, rHuman CD44/Fc Chimera, CF (R&D Systems Cat#3660-CD) (human, UniProt P16070 21-220); test: as above
# T19 construct: Bought Fc chimera; Fc part of the bought chimera not given
# [20] = molecular target: T20, Recombinant Human DLL4 (R&D Systems Cat#1506-D4/CF) (human, UniProt Q9NR61 27-524); test: as above
# T20 construct: Bought recombinant protein; also called delta-like protein 4
binder,measurement,setting,value
"Fab VH1-46_IGHD6-6*01_IGHJ1*01 & L6_IGKJ1*01 (Fab, V domains shown, Expressed in E. coli as Fab: heavy chain with CH1 plus Flag and His tags from Plasmid A, kappa light chain constant region from Plasmid C; also called Fab No. 1) VH: QVQLVQSGAEVKKPGASVKVSCKASGYTFTSYYMHWVRQAPGQGLEWMGIINPSGGSTSYAQKFQGRVTMTRDTSTSTVYMELSSLRSEDTAVYYCAREEYSSSSAEYFQHWGQGTLVTVSS VL: not shown",ECL signal,[1],291
same,ECL signal,[2],3060
same,ECL signal,[3],401
same,ECL signal,[4],429
same,ECL signal,[5],333
same,ECL signal,[6],317
same,ECL signal,[7],231
same,ECL signal,[8],253
same,ECL signal,[9],289
"Fab VH1-46_IGHD6-6*01_IGHJ1*01_S102A_S103P_S104Y_H111Y & L6_IGKJ1*01 (Fab, V domains shown, Fab made in E. coli; The heavy chain also carries CH1 with Flag and His tags from Plasmid A, and the light chain carries kappa CL from Plasmid C) VH: QVQLVQSGAEVKKPGASVKVSCKASGYTFTSYYMHWVRQAPGQGLEWMGIINPSGGSTSYAQKFQGRVTMTRDTSTSTVYMELSSLRSEDTAVYYCAREEYAPYSAEYFQYWGQGTLVTVSS VL: not shown",ECL signal,[10],1760 ECL signal
same,ECL signal,[11],1690 ECL signal
same,ECL signal,[12],2630 ECL signal
same,ECL signal,[13],1660 ECL signal
same,ECL signal,[14],1720 ECL signal
same,ECL signal,[15],5150 ECL signal
same,ECL signal,[16],1750 ECL signal
"Fab VH1-46_IGHD6-6*01_IGHJ1*01_S102A_S103P_S104F_H111Y & L6_IGKJ1*01 (Fab, V domains shown, Fab made in E. coli; The heavy chain also carries the CH1 with Flag and His tags of Plasmid A, and the light chain the kappa constant region of Plasmid C) VH: QVQLVQSGAEVKKPGASVKVSCKASGYTFTSYYMHWVRQAPGQGLEWMGIINPSGGSTSYAQKFQGRVTMTRDTSTSTVYMELSSLRSEDTAVYYCAREEYAPFSAEYFQYWGQGTLVTVSS VL: not shown",ECL signal,[17],523
same,ECL signal,[18],589
same,ECL signal,[19],433
same,ECL signal,[20],207000
